Measurements reported in article PMC4148453.
Values joined by “and” are separate entries in the source; they are usually repeats but may differ in a detail not shown here. Identical values can stand only once.

How the values were obtained:
Experiment in all cases: EMSA
Settings in all cases: 10 mM Tris-Cl pH 8.0, 1 mM DTT, 10% glycerol, 5 mM MgCl2, 10 mM KCl, with 50 mM acetyl phosphate when indicated; EMSA 30 min at 37 C; footprint at room …
[1] = tested on: 6His-BfmR (Pseudomonas aeruginosa MPAO1)
[2] = tested on: 6His-BfmR (Pseudomonas aeruginosa MPAO1); remark: listed apart in the source
[3] = tested on: 6His-BfmR D55A (Pseudomonas aeruginosa MPAO1)

bfmR promoter
Kd [1]: 200 nM and > 600 nM
Kd [2]: < 400 nM
Kd [3]: > 600 nM
